Publication PMC12524713
pKd: −log10 of the molar value.

Experiments:
[1] = biological target: SARS-CoV-2 3-chymotrypsin-like protease (3CL^pro) (SARS-CoV-2); assay: mass photometry; TwoMP mass photometer, proteins diluted in PBS to 10 nM, room temperature, 60 s; the monomer is too small to resolve
[2] = biological target: catalytic domain of matrix metalloproteinase-14 (MMP14) (human) (UniProt P50281); assay: SPR; cat-MMP14 amine-coupled on a CM5 chip (Biacore T200); 3CL^pro (0.062-20 uM) or PL^pro (0.041-10 uM) flowed in PBSP (20 mM phosphate pH 7.4, 137 mM NaCl, 2.7 mM KCl, 0.05% P20), 30 uL/min, 180 s association, 300 s dissociation, 25 C; 1:1 Langmuir kinetic fit, KD = kd/ka

SARS-CoV-2 3-chymotrypsin-like protease (3CL^pro) (enzyme)
stoichiometry N [1]: 2
pKd [2]: 5.49
koff [2]: 0.0012 s⁻¹
kon [2]: 386 M⁻¹ s⁻¹
